# A protein production outcome set (Wang et al. 2014)
# Test: label from the status in PepcDB records
row,Sequence,protein production
1,MAIKITPDEFSLLIQRLNKKWRVFAPSAEFRGGRFSDTDNIIYQRISGWRDLIWHEKSHMSPNTIIAPITETLFYFDKDTIQIAETDTSPIIIFARACDINAMSRLDYMYLSNGNNSDYSYQLLREHIRFVLIECEKSFENCFCVSMGTNKTDCYSAAMRFSDEGALVSIRDPFIEAAIQGLGQEADYTPSFVSENRETVVTPDSVCRDPQKIRDILTRHPLWDAYDSRCISCGRCTTGCPTCTCYSVFDVAYDENPQRGERRRQWASCMVPGFSDMAGGHGFREKPGERLRYRALHKVNDYKARNGIEHMCVGCGRCDDRCPQYIKFSLIINKMTAAVRQALAEEA,failed
2,RSIRLPETIDLGALYLSMKDTEKGIKELNLEKDKKIFNHCFTGNCVIDWLVSNQSVRNRQEGLMIASSLLNEGYLQPAGDMSKSAVDGTAENPFLDNPDAFYYFPDSGFFCEEN,not failed
3,MIIDTPLADRYPHAMKNQDESGDGWESLCERCGLCCFEKIEDENGTVFFTATPCRYLDVTTRQCVIYDKRFDINPECVKLTEELVRTLPWLHDDCAYRKALGVRLSKVRMNGRNKGKRG,failed
4,MPASETQGGPPPDDHTDAEPPPPLPEQSDFADAVLAAMPDPVFVFGPQNTLAWGNPPLRQAVGHSAAALRGKSLPELFGKGDAAAVEQALDAVRAGRDTATAEVALLPREGPPRPCTFTARPLSGDVGPPNCVVGIAR,failed
5,MSHPHPELGRPPALPKGGLRVTPLGGLGEIGRNMTVFEYGGRLLIVDCGVLFPEEEQPGIDLILPDFTSIRDRLDDIEGIVLTHGHEDHIGGVPFLLREKPDIPLIGSKLTLALIEAKLQEHRIRPYTLEVAEGHRERVGPFDCEFVAVNHSIPDALAVAIRTPAGMVVHTGDFKMDQLPLDGRLTDLHAFARLSEEGIDLLLADSTNAEVPGFVPPERDISNVLRQVFANARKRIIVASFASHVHRIQQILDAAHEYGRRVAFVGRSMVRNMGIARDLGYLKVPPGLVVDVKTLDDLPDSEVVLVCTGSQGEPMAALSRMANRDHQIRIVNGDTVILASSLIPGNENAVYRVINGLTRWGANVVHKGNAKVHVSGHASAGELLYFYNICRPKNLMPVHGEWRHLRANAELGALTGVPHDRIVIAEDGVVVDLVEGKAKITGKVQAGYVYVDGLSVGDVGEPALKDRKILGDEGIISVFVVMDSSTGKITGGPHVQARGSGIEDSAFAAVLPKVTEALERSAQDGVVEPHQMQQLIRRTLGKWVSDTYRRRPMILPVVVEV,failed
6,MPVCARAAAATGAAGHRSHLPEVTFCLRTIAERLHGGQHRRMNSSFCHLLHPLRLAAAFTIAAVALSFMPDASAHGAWRWGALAGFTALFVLHTVLPQTHALRTVATLLQAVLALLLVWIEPRAGTAPVLLVMLVAQAGMTWPPLRVLLLALALNAGMYAVLVHAGFDRALLIVSIYAGFQAFAALTAHYARSAERARDALAYVNADLLATRALLADSARDAERLRLARELHDVAGHKLTAMRINLRLLSADPALAQRDEVAVVEQLSAELLSDIRNVVQSLRDDQGLDLQTALRALAAPFPRPTLRLQIDADVRVTDARVAELLLRLVQEALTNAVRHADADEVAVHLHCEGAQLHVDICDDGRRAERIREGNGITGMRERLAALHGQLDLGRTPTGGMHLIARLPV,failed
7,SKQKLVLASGSPRRLELLHQIGIEPARLMPMDIDETPVKLEHPRTLCRRLSQQKAEAAQAALKSEQAWKDAYVLGSDTVVAVGRRIVGKAEYTEEASAALHLLSGRSHWVYTGICLVTPDGKIRQKVAETKVRFKRLSTREIDAYIASGQWRGKAGAYGIQGIAGAFVQKLTGSYTNVVGLPLYETMSLLSGEGFEV,failed
8,MIITLFVMVSGNKVKYEGSGKSGLWMSNLEKSDKTSIGPNYFLNLYWQGSKKEEKWTVVERITLYVDGEKYQDDNVDEYDLSEYTGDEMPGGGRMEDHISTFDYMPEDEVIGHDVLVKVEWRTGQKKQTEAIKLHKKPWYKKLEHHHHHH,failed
9,MKTKSWIASLFYSSLCFSSSYAINLHQITITDPIMGSRTITYEQVGEFAVVEGDILIGKAENLKNQGAVITPKVGGSRWPNGVIPYEIAENLPFINKLAILQAIDHWQKNTNLEFVELTSKNRYDYRDYISFIPAEGTTCSSYVGRQGGKQEINLAPRCTTMNTVHEIGHALGMWHEQSRSDRNQYIRIVWENIDEEHKFNFDQHLTDGKDFGEYDYGSIMHYGRFAFSKNGQPTIIPLVDGVEIGQRTHLSEKDIAAVKAMYPET,failed
10,MYSMSMGERGEAPDGMSGVIRYESLLAARTMAQRQPKKSAGCADSVESFRNPKPKPRFDKDVFCKTSAIRRLRSDFLHGDGSRGTGRHRAVARGPDGVRLHPAGRQRPNLPVASSASRTRHDQGSGRMSVVSAIIGTAERVPLPDVVIRAAIQRLCSRTATRISALGADDEAAFAGRMMLRPIAEDVDAANAGHDEAPASFIAQALGPNRKYSSCFYTTDATTLREAEEEALRQTVAHAGLADGQTILELGCGWGSLSLWTARQFPHAKVTAVSNSQGQRAYVEEQARLRGLLNLRVVTADMNVFAPEGQFDRIVSVEMFEHVMNWRKLMTRLRSWLAPEGRLFMHIVTHRSGSHLFDRANREDWIAQHVFTGGLMASHHLVRQFDDIFTVEKEWCWSGTHYQRTANDWLANFDAHRDAIEASLRNVHGDETALWMRRWRWFFLATSGLFGYAGGTEWGVSHYRMKAADEGVS,failed
11,MPRKQLKGETHDQKAQIASAFGEIEQSKIFLDKRSESAAVKMDIADLLKEIIQKQLRKDYDPEVESNIFINPERGDFEVYILKKIVKEVDLPTIEIGLDEVRQIDDSLELGDYYEEGPIKLDDYLTRKSIQIIKQSVQKKVRDLERLAVYEECLEKVGEVVAGEVYQVRPNEVIFTYNTSKDHRVELVLPKSEMMKKDNPRRTPRMKLYVKRIEREKVKVRNDDGTVEEREKPDGGMKVIVSRVDDRFLYKLFESEVPEILDGLIVIKGIARVPGERAKVAVESTSSRIDPVGATVGYRGKRIQSIVKELNNENIDVIYYTDEPQVFIARALQPAKIDPMTVHADMKTRKARVMLKPDQIKYAIGKNGNNIHLAEKLTGYEIDVYRDVIDKSLEDPNDIDIIEFREEFGDDMIYQLLDGGLDTAKKILKGGVEKIEEALLGTQKSEELFVFNKTRKPVKPKERRITDDEKRYWKKIAETIYRTVREQFNDEDLKALLDDSHERSLKGDGIDPEEIRDKETNLEHHHHHH,failed
12,MAYIYGFRTLDRRVFYLALSRLIRASGRVSSFIFLPLIFIEIYSISFLITGLILGSSAIAMAFVQYYSGRWTDRIGRRFFLIVIPIPAAVFYFLMFTTVYLHMSVILLIIFWYGTIITNSLQYPAIEASVADVTSTSERLSGYTLIRIMANLGAAVGPLAGGFLAGINFSYIFLLASIFTVIELFILYYNVRETFLPARAIAEKIKLKIFKTDRFFFLFTLVGVFLGFTLRQNGPTLTVYAFDLKNLPLMDIGYLYSLNGIVVIALQMPILRLMSSRSNPVFWRGIGTIYYSIGFVILGIAPTFLYILLAMFIFTVGEDFMSPTTQTIITTLAPAEKKGSYIGSYNLLTSFGRFFGTIFGLYFLFIYQKTTFTFWIIIATSTGVIGLLYIFMSESFIKRTSKIATLPGKA,failed
13,MSFIVCMSVLGVLLMLLALTSSYLRWMPVTTSAVCLAFGFGIGPLGLDIINLDFKQSREWLECLTEVAVLFSLFGTGIKLRLPLNCKAWHSAYWLAGPVMLATIAGVSVAAHYIFAIDWGVALLLGAMLSPTDPVLAGMVQVNSAQDQDRLRFGLSGEAGLNDGTAFPFVIFAMLYLSSGGVTGDWAQHWLLKDLIWAVPAGLLIGFGMGRGVGHLMIFLRIKNADSTTSPNDFLALALIALAYVVAEGFGAFGFLSVFAAGFGLRQAEMRVTRSELPSEHVAQPVLGHMTAALDQGTVAKADDLSDSQLAAGVMMGDMLAFGSLVERAMEVLLITLLGAALASYWDWRAIGLGLALFCVIRPASVWLLVSQKLLNARQKALVGWFGIRGIGSLYYLCFALSHGLADDVGNVVIGMTLSVVALSILLHGISIQPLLERYERSTAANPDK,failed
14,MSAWTMSDPYPATEAHAQRAAKSSPKSLLDRLLSLVRREPEDREGIKAILEAAHERELLDAESYAMIKGALAVSERTVADIMVPRSRMDLLDISQPLPQLLATIIETAHSRFPVYEDDRDNIIGILLAKDLLRYMLEPALDIRSLVRPAVFIPEVKRLNVLLREFRASRNHLAIVIDEHGGISGLVTMEDVLEQIVGDIEDEFDEDEEESIFPEGENQWRLTASTDISHFNATFATDLPDDEYDSVGGWLGGQLGRIPRRGDSADHDGLHIEVVRADARRALWLRVRRNAGAQPPASAAE,not failed
